B1: YFP-RepoMan-wt [not stated] / endogenous PP2A-B56γ [human (endogenous in HeLa)] (parent)
chain 1: MDANSKDKPPETKESAMNNAGNASFILGTGKIVTPQKHAELPPNPCTPDTFKSPLNFSTVTVEQLGITPESFVRNSAGKSSSYLKKCRRRSAVGARGSPETNHLIRFIARQQNIKNARKSPLAQDSPSQGSPALYRNVNTLRERISAFQSAFHSIKENEKMTGCLEFSEAGKESEMTDLTRKEGLSACQQSGFPAVLSSKRRRISYQRDSDENLTDAEGKVIGLQIFNIDTDRACAVETSVDLSEISSKLGSTQSGFLVEESLPLSELTETSNALKVADCVVGKGSSDAVSPDTFTAEVSSDAVPDVRSPATPACRRDLPTPKTFVLRSVLKKPSVKMCLESLQEHCNNLYDDDGTHPSLISNLPNCCKEKEAEDEENFEAPAFLNMRKRKRVTFGEDLSPEVFDESLPANTPLRKGGTPVCKKDFSGLSSLLLEQSPVPEPLPQPDFDDKGENLENIEPLQVSFAVLSSPNKSSISETLSGTDTFSSSNNHEKISSPKVGRITRTSNRRNQLVSVVEESVCNLLNTEVQPCKEKKINRRKSQETKCTKRALPKKSQVLKSCRKKKGKGKKSVQKSLYGERDIASKKPLLSPIPELPEVPEMTPSIPSIRRLGSGYFSSNGKLEEVKTPKNPVKRKDLLRHDPDLHMHQGYDKYDVSEFCSYIKSSSSLGNATSDEDPNTNIMNINENKNIPKAKNKSESENEPKAGTDSPVSCASVTEERVASDSPKPALTLQQGQEFSAGGQNAENLCQFFKISPDLNIKCERKDDFLGAAEGKLQCNRLMPNSQKDCHCLGDVLIENTKESKSQSEDLGRKPMESSSVVSCRDRKDRRRSMCYSDGRSLHLEKNGNHTPSSSVGSSVEISLENSELFKDLSDAIEQTFQRRNSETKVRRSTRLQKDLENEGLVWISLPLPSTSQKAKRRTICTFDSSGFESMSPIKETVSSRQKPQMAPPVSDPENSQGPAAGSSDEPGKRRKSFCISTLANTKATSQFKGYRRRSSLNGKGESSLTALERIEHNGERKQ
chain 2: not shown

Variants of: B1
Experiment: proximity ligation assay (PLA)
Settings: with endogenous PP2A-B56γ [human (endogenous in HeLa)]; asynchronous; endogenous RepoMan knocked down using siRM; Anti-GFP+B56γ antibodies; median shown in red; read off a plot

Row | response (PLA foci per cell) | Variant
1 | 10 | chain 1 P604A

Same assay, conditions: with endogenous PP2A-B56γ [human (endogenous in HeLa)]; monastrol arrested; endogenous RepoMan knocked down using siRM; Anti-GFP+B56γ antibodies; median shown in red; read off a plot

Row | response (PLA foci per cell) | Variant
2 | 19 | chain 1 P604A

Variants of: B1
Experiment: immunofluorescence, dCas9-DARPin recruitment to ectopic foci on chr 1
Settings: with mCherry-B56γ; prometaphase-arrested cells; average of 3 independent experiments, 58 (wt) 60 (P604A) cells; read off a plot

Row | response | Variant
3 | 0.45 | chain 1 P604A

Reference: PMC13299607
